Data reported in patent publication US20030027246A1, “Immunogenic peptides derived from prostate-specific membrane antigen (PSMA) and uses thereof” (priority 2000, published 2003).
Marks after values point to notes of the source that are not given here.

Tests used:
[1] = biological target: T1, HLA-A0201 molecules on T2 cells (Homo sapiens, UniProt P04439, D140Y/D185E/D98H/E176V/E277Q/G131W/G231S/I119V/I121R/I166T/I218V/L300P/L318F/N151K/N90K/P208A/P217A/Q86G/Q94H/R138H/R169H/T345S); experiment: HLA-A0201 binding/stabilization of PSMA derived peptides on T2 cells (BB7.2 flow cytometry); assay type: cell-based; details: for Fluorescence Index (FI): T2 cells; for HLA-A0201 binding as judged by Fluorescence Index (FI) values: membrane-bound HLA-A0201 on T2 cells, result in words
T1 construct: endogenous in cells; host or cells: T2 cell line (Dr. Peter Creswell, Yale University)
Description: The ability of the PSMA derived peptides described in Table 1 to stabilize membrane-bound HLA-A0201 molecule was assessed utilizing the T2 cell line (Dr. Peter Creswell, Yale University). The cell line has been well documented to have a defective TAP (i.e. Transporter for Antigen Processing) transporter function. […] The stability of the surface HLA-A0201 molecules can be restored upon interaction with suitable exogenous peptides. The stabilization of the conformation of the class 1 MHC molecules is accompanied by the formation of an immunodominant epitope recognized by a mouse monoclonal antibody (designated BB7.2; American Type Culture Collection (ATCC)). Thus, the detection of this specific epitope is indicative of stable membrane-bound HLA-A0201 molecules loaded with peptide.
T2 cells were propagated in Iscove's complete medium (Iscove's medium supplemented with 10% heat-inactivated bovine serum, 120.0 units per ml of penicillin G sodium, 120 μg per ml of streptomycin sulphate, and 0.35 mg per ml of L-glutamine). The ability of PSMA peptides (Table 1) to bind and stabilize surface HLA-A0201 molecules on T2 cells was determined utilizing a protocol documented in the art (Deng, Y. (1997) J Immunol 158:1507-1515). In essence, 0.5×10^6 T2 cells were incubated with 125.0 μM of the test peptide in 200.0 μl of serum-free culture medium (Iscove's medium supplemented with 120.0 units per ml of penicillin G sodium, 120.0 μg per ml of streptomycin sulphate and 0.35 mg per ml of L-glutamine) overnight at 37° C. Subsequently, cells were washed twice with Iscove's medium (without bovine serum) to remove free PSMA peptide. To the cell pellet was added 1.0 ml of complete Iscove's medium (supplemented with fetal bovine serum (10% final)) containing 5.0 μg per ml of brefeldin A (Sigma), 12.5 μg per ml of anisomycin (Sigma) and 5.0 μg per ml of cyclohexamide (Sigma). […] The cells were subsequently incubated 30 min on ice prior to two washes with ice-cold PBA (phosphate buffered saline (pH 7.2) containing 2.0% bovine serum). 100.0 μl of PBA containing 5.0 μg of monoclonal antibody BB7.2 was added to each test sample. The reaction was allowed to proceed on ice for 45 min. Cells were then washed three times with ice-cold PBA. The binding of BB7.2 was detected via the addition of 100.0 μl of PBA containing 1.0 μg of goat anti-mouse IgG-Fc fluorescein (FITC) conjugate (BETHYL Laboratories Inc.). After a 30 min incubation on ice, cells were twice washed with ice-cold PBA, and twice with ice-cold PBS (pH 7.2). Cells were immediately fixed by the addition of 50.0 μl of 1.0% paraformaldehyde. Samples were analyzed by Flow Cytometry. Results were expressed in units of Fluorescence Index (FI), calculated by the equation: [formula]
An FI value of 0.5 or greater was deemed to be significant.

A2Kb transgenic mouse = experiment: Immunogenicity of PSMA derived peptides in A2Kb transgenic mice (51Cr-release CTL assay); assay type: in vivo; details: 100.0 μg peptide + I-Ab-restricted peptide in IFA s.c.; splenocytes re-stimulated 6-7 days; 4 hr 51Cr-release vs peptide-pulsed P815-A2Kb targets
Description: The A2Kb transgenic mouse was used to assess the immunogenicity of the HLA-A0201 binding PSMA peptides. Mice of the B1O background (transgenic for the A2Kb chimeric gene) were purchased from the Scripps Clinic in California, USA. Mice were injected subcutaneously at the base of the tail with a dose of inoculum prepared by emulsifying 100.0 μg of the test peptide and 100.0 μg of an I-A^b-restricted peptide (described in Milich, D. R. et al. (1987) J. Immunol 139: 1223-1231) in incomplete Freund's adjuvant (IFA). Spleens of the experimental animals were collected on the 10th or 11th day post immunization. Spleenocytes of the experimental mice were prepared and cultured to enrich for CTLs before being assessed for effector activity. In vitro re-stimulation of the in vivo generated CTLs was performed by co-culturing in a 25 cm^2 tissue culture flask 3×10^7 responder cells (i.e. spleenocytes) with 1.3×10^7 irradiated autologous LPS (lipopolysaccharide)-blasts which had been pulsed with the respective peptide (100.0 μg per 10^8 cells). Cultures were kept in a 37° C., humidified CO2 incubator for 6-7 days before being tested for effector function in a standard 4 hr in vitro ^51Cr-release CTL assay as follows. […] Supernatant aliquots were then removed and counted for radioactivity.

[2] = 125.0 μM test peptide, overnight at 37° C., then 3.0 hr de-stabilization step, FI of 0.5 or greater deemed significant

Fluorescence Index (FI) [1, 2] | HLA-A0201 binding as judged by Fluorescence Index (FI) values [1] | Sequence | also measured
0.3 | – | VLRMMNDQL [CLP-335] | –
0 | – | NMKAFLDEL [CLP-329] | –
0.7 | demonstrated HLA-A0201 binding | ELAHYDVLL (CLP330) [CLP-330, PSMA derived peptide, amino acid position 109-117] | –
– | demonstrated HLA-A0201 binding | LMYSLVHNL [CLP-333] | –
0 | – | PMFKYHLTV [CLP-334] | –
– | demonstrated HLA-A0201 binding | MMNDQLMFL [CLP-336] | Immunogenicity: epitope-specific CTL responses (FIG. 1) (A2Kb transgenic mouse): immunogenic and capable of eliciting epitope-specific CTL responses
0 | – | NLNGAGDPL [CLP-331] | –

Further lines, the sequence ahead of its results:

Sequence | Fluorescence Index (FI) [1, 2] | HLA-A0201 binding as judged by Fluorescence Index (FI) values [1] | also measured
ALFDIESKV (CLP337) [CLP-337, PSMA derived peptide, amino acid position 711-719] | – | – | Immunogenicity: epitope-specific CTL responses (FIG. 1) (A2Kb transgenic mouse): immunogenic and capable of eliciting epitope-specific CTL responses
VLAGGFFLL (CLP328) [CLP-328, PSMA derived peptide, amino acid position 27-35] | 1.3 | demonstrated HLA-A0201 binding | –
LDSVELAHY (CLP324) [CLP-324, reference compound] | – | does not exhibit binding | Fluorescence Index (FI) ([1]; 125.0 μM peptide, analysis did not include 3 hr de-stabilization step): 0**
LLHETDSAV [CLP-326] | – | demonstrated HLA-A0201 binding | –
WLCAGALVL (CLP327) [CLP-327, PSMA derived peptide, amino acid position 20-28] | 0 | – | –
